Reference: US20190083587A1 (Novo Nordisk, published 2019)

T1: human fibrinogen (human, UniProt P02671 20-629; P02675 31-491; P02679 27-437, limits assumed)
T1 construct: the chain composition (two each of alpha, beta, gamma) is from general knowledge; also called HCI-0150R Haematologic technologies
T1 sequence (looked up) 1: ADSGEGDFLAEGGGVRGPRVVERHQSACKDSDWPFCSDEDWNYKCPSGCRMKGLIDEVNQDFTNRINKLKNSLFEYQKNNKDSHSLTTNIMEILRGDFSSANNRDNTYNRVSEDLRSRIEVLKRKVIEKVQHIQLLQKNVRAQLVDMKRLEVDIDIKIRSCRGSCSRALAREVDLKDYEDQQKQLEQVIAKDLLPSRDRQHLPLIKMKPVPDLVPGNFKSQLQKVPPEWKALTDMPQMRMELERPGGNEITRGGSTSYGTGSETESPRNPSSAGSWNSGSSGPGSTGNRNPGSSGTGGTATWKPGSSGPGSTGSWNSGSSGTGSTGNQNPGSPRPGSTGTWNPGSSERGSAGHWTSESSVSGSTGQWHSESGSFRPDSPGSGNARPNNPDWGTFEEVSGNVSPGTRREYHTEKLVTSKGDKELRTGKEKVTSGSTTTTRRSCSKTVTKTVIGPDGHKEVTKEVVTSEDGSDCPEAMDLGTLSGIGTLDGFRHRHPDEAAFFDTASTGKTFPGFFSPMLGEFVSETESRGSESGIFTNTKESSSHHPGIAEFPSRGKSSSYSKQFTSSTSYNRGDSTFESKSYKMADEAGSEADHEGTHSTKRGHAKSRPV
T1 sequence (looked up) 2: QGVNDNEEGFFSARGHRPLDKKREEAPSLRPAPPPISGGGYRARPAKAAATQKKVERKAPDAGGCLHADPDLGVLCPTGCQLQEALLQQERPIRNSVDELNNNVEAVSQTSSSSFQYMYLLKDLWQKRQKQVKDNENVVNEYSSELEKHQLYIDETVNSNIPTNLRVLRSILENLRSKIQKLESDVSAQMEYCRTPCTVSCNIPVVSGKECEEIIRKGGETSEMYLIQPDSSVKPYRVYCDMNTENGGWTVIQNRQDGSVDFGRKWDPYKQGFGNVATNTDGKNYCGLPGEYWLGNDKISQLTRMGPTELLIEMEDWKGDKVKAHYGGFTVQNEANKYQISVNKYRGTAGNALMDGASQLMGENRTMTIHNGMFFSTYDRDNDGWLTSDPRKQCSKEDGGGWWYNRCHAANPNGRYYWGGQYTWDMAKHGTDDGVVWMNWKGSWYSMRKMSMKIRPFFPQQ
T1 sequence (looked up) 3: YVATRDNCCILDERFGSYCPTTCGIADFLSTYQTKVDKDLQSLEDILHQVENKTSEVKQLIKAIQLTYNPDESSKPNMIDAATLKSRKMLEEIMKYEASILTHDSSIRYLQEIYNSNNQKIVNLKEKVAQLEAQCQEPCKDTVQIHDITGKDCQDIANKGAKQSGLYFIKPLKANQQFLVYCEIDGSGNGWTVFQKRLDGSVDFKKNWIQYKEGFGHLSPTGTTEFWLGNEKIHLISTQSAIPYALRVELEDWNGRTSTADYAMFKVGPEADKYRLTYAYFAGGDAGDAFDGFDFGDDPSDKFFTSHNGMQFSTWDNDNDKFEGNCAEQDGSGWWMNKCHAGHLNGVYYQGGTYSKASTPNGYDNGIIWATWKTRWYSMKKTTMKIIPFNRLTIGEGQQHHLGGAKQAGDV

B1: hTLT-1 ECD-His (receptor)
chain: QGIVGSLPEVLQAPVGSSILVQCHYRLQDVKAQKVWCRFLPEGCQPLVSSAVDRRAPAGRRTFLTDLGGGLLQVEMVTLQEEDAGEYGCMVDGARGPQILHRVSLNILPPEEEEETHKIGSLAENAFSDPAGSANPLEPSQDEKSIPHHHHHH
notes: Extracellular domain of human TLT-1 with C-terminal His-6 tag; the range 16-168 is computed from these; also called TLT-1-His; His tagged human TLT1
B2: Fab0003 (Fab)
heavy: QVQLQQSGAEPMKPGASVKISCKATGYTFSSHWIEWIKQRPGHGLEWIGEILPGSGNTNYNEKFKGKATFTADTSSNTAYMQLSSLTSEDSAVYYCARGYYGLNYDWYFDVWGAGTTVTVSSASTKGPSVFPLAPCSRSTSESTAALGCLVKDYFPEPVTVSWNSGALTSGVHTFPAVLQSSGLYSLSSVVTVPSSSLGTKTYTCNVDHKPSNTKVDKRVESKYGPPC
light: DIQMTQTTSSLSASLGDRVTISCRASQDISNYLNWYQQKPDGTVKLLIFYTSRLHSGVPSRFSGSGSGTDYSLTISNLEPEDIATYYCQQDTKLPYTFGGGTKLEMKRTVAAPSVFIFPPSDEQLKSGTASVVCLLNNFYPREAKVQWKVDNALQSGNSQESVTEQDSKDSTYSLSSTLTLSKADYEKHKVYACEVTHQGLSSPVTKSFNRGECEDQVDPRLIDGK
notes: VH-CH1 (human IgG4) with partial hinge YGPPC; light chain with HPC4 tag; Entries may include signal peptides; also called antiTLT-1 0003Fab-YGPPC; (0052LC-HPC4)
B3: Fab0084 (Fab)
heavy: EVKLLESGGGLVQPGGSLKLSCAASGFDFSRYWMTWVRQAPGKGLEWIGEINPDSSTINYNPSLKDKFIISRDNAKNTLYLQMSEVRSEDTALYYCASGVFTSWGQGTLVTVSAASTKGPSVFPLAPCSRSTSESTAALGCLVKDYFPEPVTVSWNSGALTSGVHTFPAVLQSSGLYSLSSVVTVPSSSLGTKTYTCNVDHKPSNTKVDKRVESKYGPPC
light: DVVMTQTPLSLPVSLGDQASISCRSSQSLVHRNGNTYFHWALQKPGQSPKLLIYKVSNRFSGVPDRFSGSGSGTDFTLKISRVEAEDLGVYFCSQSTHVPYTFGGGTKLEIKRTVAAPSVFIFPPSDEQLKSGTASVVCLLNNFYPREAKVQWKVDNALQSGNSQESVTEQDSKDSTYSLSSTLTLSKADYEKHKVYACEVTHQGLSSPVTKSFNRGECEDQVDPRLIDGK
notes: VH-CH1 (human IgG4) with partial hinge YGPPC (one free Cys); light chain with HPC4 tag; the ends of the ranges are computed; also called antiTLT-1 0084Fab-YGPPC; (0012VH.T60N-CH1-YGPPC)
B4: Fab0074 (Fab)
heavy: QVQLEQSGAELVRPGVSVKISCKGSGYTFTDYSMHWVKQSHAKSLEWIGVISTYYGDVRYNQKFKGKATMTVDKSSSTAYMALARLTSEDSAIYYCARAPMITTGAWFAYWGQGTLVTVSAASTKGPSVFPLAPCSRSTSESTAALGCLVKDYFPEPVTVSWNSGALTSGVHTFPAVLQSSGLYSLSSVVTVPSSSLGTKTYTCNVDHKPSNTKVDKRVESKYGPPC
light: SIVMTQTPKFLLVSAGDRVTITCKASQSVSNDVAWYQQKPGQSPKLLINYASSRYTGIPDRFTGSGYGTDFTFTISTVQAEDLAVYFCQQDYSSPYTFGGGTKLEIERTVAAPSVFIFPPSDEQLKSGTASVVCLLNNFYPREAKVQWKVDNALQSGNSQESVTEQDSKDSTYSLSSTLTLSKADYEKHKVYACEVTHQGLSSPVTKSFNRGECEDQVDPRLIDGK
notes: VH-CH1 (human IgG4) with partial hinge YGPPC (one free Cys); light chain with HPC4 tag; Entries may include signal peptides; also called antiTLT-1 0074Fab-YGPPC; (0051LC-HPC4)
B5: Fab0004 (Fab)
heavy: EVRLVESGGGLVQPGGSLKLSCATSGFTFSDYFMYWIRQTPEKRLEWVAYISNGGDSSSYPDTVKGRFTISRDNAKNTLYLQMSRLKSEDTAMYYCATNKNWDDYYDMDYWGQGTSVTVSSASTKGPSVFPLAPCSRSTSESTAALGCLVKDYFPEPVTVSWNSGALTSGVHTFPAVLQSSGLYSLSSVVTVPSSSLGTKTYTCNVDHKPSNTKVDKRVESKYGPPC
light: DIVVSQSPSSLAVSAGEKVTMSCKSSQSLLNSRTRKNYLAWYQQKPGQSPKLLIYWASTRESGVPDRFTGSGSGTDFTLTISSVQAEDLAVYYCKQSYNLLTFGAGTKLELKRTVAAPSVFIFPPSDEQLKSGTASVVCLLNNFYPREAKVQWKVDNALQSGNSQESVTEQDSKDSTYSLSSTLTLSKADYEKHKVYACEVTHQGLSSPVTKSFNRGECEDQVDPRLIDGK
notes: VH-CH1 (human IgG4) with partial hinge YGPPC; light chain with HPC4 tag; Entries may include signal peptides; also called antiTLT-1 0004Fab-YGPPC; (0023LC-HPC4)

Assays:
FVIIa-Fab1001 = target: T2, FVIIa-Fab1001 (human, UniProt P08709 61-466, linker attached as sialic acid derivative to an N-linked glycan (ST3Gal-III); gamma-carboxylated Glu in the Gla domain; unpaired hinge Cys (YGPPC) coupled by maleimide to the 3 kDa PEG linker); experiment: SPR Biacore T200, His-tagged TLT-1 captured via anti 6xHis mAb, analyte 29.29-0.45 nM, 25 C
T2 construct: FVIIa is the two-chain form; also called conjugate of anti TLT-1-FAB fragment (Fab0084) to FVIIa via a 3 kDa PEG linker
Method: Method: An anti 6×his antibody was immobilised to a level of approx 9000 RU on a CM5 chip (0.5 mg/ml diluted in Na-acetate, pH 5.0) using the standard procedure recommended by the supplier. Human his-tagged TLT-1 in a concentration of 100 ng/ml was used as ligand. FVIIa-Fab1001 in two-fold dilutions from 29.29 nM to 0.45 nM was used as analytes. The running and dilution buffer was made from: 10 mM HEPES, 150 mM NaCl, 3 mM EDTA, 0.005% p20, pH 7.4. Regeneration was obtained by 3 M MgCl₂. The experiment was run at 25 degree Celsius. Determination of kinetic and binding constants (kₒₙ, koff, KD) was obtained assuming a 1:1 interaction of TLT1 and FVIIa-Fab1001 using the Biacore T200 evaluation software (Table 19).

human fibrinogen = target: T1, human fibrinogen; experiment: SPR Biacore T100, TLT-1 immobilised on CM5, fibrinogen 200-0.2 nM as analyte
Method: Human TLT-1 was immobilised to a level of approx 1000 RU on a CM5 chip (50 μg/ml diluted in Na-acetate, pH 4.0) using the standard procedure recommended by the supplier. Four-fold dilutions of human fibrinogen from 200 nM to 0.2 nM were tested for binding to the immobilized TLT-1. Running and dilution buffer: 10 mM HEPES, 150 mM, 0.005% p20, pH 7.4. Regeneration was obtained by 10 mM Glycine, pH 1.7.
Determination of kinetic and binding constants (kₒₙ, koff, KD) was obtained assuming a 1:1 interaction of TLT-1 and fibrinogen using the Biacore T100 evaluation software (Table 11).

FVIIa-Fab1029 = target: T3, FVIIa-Fab1029 (human, UniProt P08709 61-466, linker attached as sialic acid derivative to an N-linked glycan (ST3Gal-III); gamma-carboxylated Glu in the Gla domain; unpaired hinge Cys (YGPPC) coupled by maleimide to the 10 kDa PEG linker); experiment: SPR Biacore T100, TLT-1 immobilised on CM5, analyte 20-0.3 nM
T3 construct: FVIIa is the two-chain form cleaved between Arg152 and Ile153; also called conjugate of anti TLT-1-FAB fragment (Fab0084) to FVIIa, 10 kDa PEG linker
Method: TLT-1 was immobilized directly to a CM5 chip to a level of approx 2000 RU (50 ug/ml diluted in Na-acetate, pH 4.0) using the standard procedure recommended by the supplier and reagents provided in Table 16. Two-fold dilutions of FVIIa-Fab1029 and FIX-Fab0135 from 20 nM to 0.3 nM were tested for binding to TLT-1. Running and dilution buffer: 10 mM HEPES, 150 mM, 0.005% p20, pH 7.4. Regeneration was obtained by 10 mM Glycine, pH 1.7. Determination of kinetic and binding constants (kₒₙ, koff, KD) was obtained assuming a 1:1 interaction of TLT-1 and FVIIa-Fab1029 or FIX-Fab0135 using the Biacore T100 evaluation software.

hTLT-1 ECD-His = target: B1; experiment: SPR Biacore, TLT-1-His captured via anti-His mAb, Fab as analyte
Method: Method: The mAbs of interest were either immobilized directly to a CM5 chip or by capture via a human Fc capture mAb immobilized to a CM5 chip, while TLT-1-His was immobilized by capture via an anti-His mAb CM5 chip for analysis of Fabs.
TLT-1-His capture via anti-His mAb (R&D #MAB050): The anti-His mAb was immobilised to approx 9.000 RU. The TLT-1-His was added to a level of approx 30-40 RU (10 μg/ml diluted in 10 mM Hepes, 150 mM NaCl, 3 mM EDTA, 0.005% Tween-20) using the standard procedure recommended by the supplier. 8-fold dilutions of Fabs from 3 to 0.047 μg/ml were tested for binding to the TLT-1-His. Running and dilution buffer: 10 mM Hepes, 150 mM NaCl, 3 mM EDTA, 0.005% Tween-20. Regeneration was obtained by 3 M MgCl₂.

T2 sequence (P08709 61-466 limits assumed): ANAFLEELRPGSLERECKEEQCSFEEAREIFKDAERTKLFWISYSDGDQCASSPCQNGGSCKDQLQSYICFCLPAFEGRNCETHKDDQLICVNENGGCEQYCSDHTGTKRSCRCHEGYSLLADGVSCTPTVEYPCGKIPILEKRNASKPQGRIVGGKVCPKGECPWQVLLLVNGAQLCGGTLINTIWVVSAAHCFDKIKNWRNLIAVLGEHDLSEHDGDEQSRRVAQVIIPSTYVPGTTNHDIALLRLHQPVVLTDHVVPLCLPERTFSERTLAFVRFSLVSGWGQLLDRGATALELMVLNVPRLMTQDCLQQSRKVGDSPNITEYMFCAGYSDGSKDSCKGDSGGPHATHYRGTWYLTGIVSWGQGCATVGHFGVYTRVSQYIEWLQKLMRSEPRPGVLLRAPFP
T3 sequence (P08709 61-466 limits assumed): as above

Kd (FVIIa-Fab1001) [nM] | koff (FVIIa-Fab1001) [s⁻¹] | kon (FVIIa-Fab1001) [M⁻¹ s⁻¹] | Kd (human fibrinogen) [nM] | koff (human fibrinogen) [s⁻¹] | kon (human fibrinogen) [M⁻¹ s⁻¹] | Kd (FVIIa-Fab1029) [nM] | koff (FVIIa-Fab1029) [s⁻¹] | kon (FVIIa-Fab1029) [M⁻¹ s⁻¹] | Kd (hTLT-1 ECD-His) [nM] | koff (hTLT-1 ECD-His) [s⁻¹] | kon (hTLT-1 ECD-His) [M⁻¹ s⁻¹] | Binder
3.99 | 0.00319 | 801000 | 94 | 0.000392 | 4170 | 18.3 | 0.00726 | 397000 | – | – | – | B1
– | – | – | – | – | – | – | – | – | 5.2 | 0.00279 | 536000 | B2
– | – | – | – | – | – | – | – | – | 0.99 | 0.00524 | 5.31e+06 | B3
– | – | – | – | – | – | – | – | – | 2.38 | 0.00798 | 3.35e+06 | B4
– | – | – | – | – | – | – | – | – | 1.7 | 0.00195 | 1.15e+06 | B5
